Patent US10294487B2, “Methods and compositions involving ALS variants with native substrate preference” (E I DU PONT DE NEMOURS AND COMPANY, priority 2012, dated 2019)
Where a chain is given by its changes, count along the chain named. Numbers in names are those of the source.

B1: F590L: Site-directed mutation in S. cerevisiae ALS; position F578, 559 (protein, UniProt P07342 91-687, looked up, variant F590L)
Acetolactate synthase …: GLTGGQIFNEMMSRQNVDTVFGYPGGAILPVYDAIHNSDKFNFVLPKHEQGAGHMAEGYARASGKPGVVLVTSGPGATNVVTPMADAFADGIPMVVFTGQVPTSAIGTDAFQEADVVGISRSCTKWNVMVKSVEELPLRINEAFEIATSGRPGPVLVDLPKDVTAAILRNPIPTKTTLPSNALNQLTSRAQDEFVMQSINKAADLINLAKKPVLYVGAGILNHADGPRLLKELSDRAQIPVTTTLQGLGSFDQEDPKSLDMLGMHGCATANLAVQNADLIIAVGARFDDRVTGNISKFAPEARRAAAEGRGGIIHFEVSPKNINKVVQTQIAVEGDATTNLGKMMSKIFPVKERSEWFAQINKWKKEYPYAYMEETPGSKIKPQTVIKKLSKVANDTGRHVIVTTGVGQHQMWAAQHWTWRNPHTFITSGGLGTMGYGLPAAIGAQVAKPESLVIDIDGDASFNMTLTELSSAVQAGTPVKILILNNEEQGMVTQWQSLLYEHRYSHTHQLNPDFIKLAEAMGLKGLRVKKQEELDAKLKEFVSTKGPVLLEVEVDKKVPVLPMVAGGSGLDEFINFDPEVERQQTELRHKRTGGKH
B2: P192S: Site-directed mutation in S. cerevisiae ALS; position P197, 178 (protein, UniProt P07342 91-687, looked up, variant P192S)
Acetolactate synthase …: B1 Acetolactate synthase … with P102S, L500F
B3: W586L: Site-directed mutation in S. cerevisiae ALS; position W574, 555 (protein, UniProt P07342 91-687, looked up, variant W586L)
Acetolactate synthase …: B1 Acetolactate synthase … with W496L, L500F
B4: M354V: Site-directed mutation in S. cerevisiae ALS; position M351, 332 (protein, UniProt P07342 91-687, looked up, variant M354V)
Acetolactate synthase …: B1 Acetolactate synthase … with M264V, L500F
B5: K251T: Site-directed mutation in S. cerevisiae ALS; position K256, 237 (protein, UniProt P07342 91-687, looked up, variant K251T)
Acetolactate synthase …: B1 Acetolactate synthase … with K161T, L500F
B6: D379N: Site-directed mutation in S. cerevisiae ALS; position D376, 357 (protein, UniProt P07342 91-687, looked up, variant D379N)
Acetolactate synthase …: B1 Acetolactate synthase … with D289N, L500F
B7: A200V: Site-directed mutation in S. cerevisiae ALS; position A205, 186 (protein, UniProt P07342 91-687, looked up, variant A200V)
Acetolactate synthase …: B1 Acetolactate synthase … with A110V, L500F
B8: G116S: Site-directed mutation in Saccharomyces cerevisiae ALS; position G121 A. thal., 102 G. max (protein, UniProt P07342 91-687, looked up, variant G116S)
Acetolactate synthase …: B1 Acetolactate synthase … with G26S, L500F
B9: SAMS: GM-ALS_P178S_D357E: SAMS promoter driving ALS variant SEQ ID NO 17 in transgenic soybean (protein)
chain: MAATASRTTRFSSSSSHPTFPKRITRSTLPLSHQTLTKPNHALKIKCSISKPPTAAPFTKEAPTTEPFVSRFASGEPRKGADILVEALERQGVTTVFAYPGGASMEIHQALTRSAAIRNVLPRHEQGGVFAAEGYARSSGLPGVCIATSGPGATNLVSGLADALMDSVPVVAITGQVSRRMIGTDAFQETPIVEVSRSITKHNYLILDVDDIPRVVAEAFFVATSGRPGPVLIDIPKDVQQQLAVPNWDEPVNLPGYLARLPRPPAEAQLEHIVRLIMEAQKPVLYVGGGSLNSSAELRRFVELTGIPVASTLMGLGTFPIGDEYSLQMLGMHGTVYANYAVDNSDLLLAFGVRFDERVTGKLEAFASRAKIVHIDIDSAEIGKNKQAHVSVCADLKLALKGINMILEEKGVEGKFDLGGWREEINVQKHKFPLGYKTFQDAISPQHAIEVLDELTNGDAIVSTGVGQHQMWAAQFYKYKRPRQWLTSGGLGAMGFGLPAAIGAAVANPGAVVVDIDGDGSFIMNVQELATIRVENLPVKILLLNNQHLGMVVQWEDRFYKSNRAHTYLGDPSSESEIFPNMLKFADACGIPAARVTKKEELRAAIQRMLDTPGPYLLDVIVPHQEHVLPMIPSNGSFKDVITEGDGRTRY
B10: A122V: Site-directed mutation in A. thaliana ALS; position A122, 103 (protein, UniProt P17597 56-670, looked up, variant A122V)
Acetolactate synthase, …: SSSPSSISAVLNTTTNVTTTPSPTKPTKPETFISRFAPDQPRKGADILVEALERQGVETVFAYPGGVSMEIHQALTRSSSIRNVLPRHEQGGVFAAEGYARSSGKPGICIATSGPGATNLVSGLADALLDSVPLVAITGQVPRRMIGTDAFQETPIVEVTRSITKHNYLVMDVEDIPRIIEEAFFLATSGRPGPVLVDVPKDIQQQLAIPNWEQAMRLPGYMSRMPKPPEDSHLEQIVRLISESKKPVLYVGGGCLNSSDELGRFVELTGIPVASTLMGLGSYPCDDELSLHMLGMHGTVYANYAVEHSDLLLAFGVRFDDRVTGKLEAFASRAKIVHIDIDSAEIGKNKTPHVSVCGDVKLALQGMNKVLENRAEELKLDFGVWRNELNVQKQKFPLSFKTFGEAIPPQYAIKVLDELTDGKAIISTGVGQHQMWAAQFYNYKKPRQWLSSGGLGAMGFGLPAAIGASVANPDAIVVDIDGDGSFIMNVQELATIRVENLPVKVLLLNNQHLGMVMQWEDRFYKANRAHTFLGDPAQEDEIFPNMLLFAAACGIPAARVTKKADLREAIQTMLDTPGPYLLDVICPHQEHVLPMIPSGGTFNDVITEGDGRIKY
B11: P197S: Chemical mutagenesis of A. thaliana plants; position P197, 178 (protein, UniProt P17597 56-670, looked up, variant P197S)
Acetolactate synthase, …: B10 Acetolactate synthase, … with V67A, P142S
B12: R199E: Site-directed mutation in A. thaliana ALS; position R199, 180 (protein, UniProt P17597 56-670, looked up, variant R199E)
Acetolactate synthase, …: B10 Acetolactate synthase, … with V67A, R144E

Tests used:
[1] = system: ALS; settings: cited from earlier work; for Resistance pattern, I50 fold increase: IM: imidazolinone(s); for Resistance pattern, I50 fold increase: SU: sulfonylurea(s); for Resistance pattern, I50 fold increase: IEt: imazethapyr; for Resistance pattern, I50 fold increase: IP: IP (abbreviation not defined)
[2] = system: ALS; settings: cited from earlier work; for Kinetic parameters: Km / Kinetic parameters: kcat: pyruvate reaction
[3] = system: soybean plants; assay: Chlorsulfuron spray test of transgenic T1 soybean plants; type: in vivo; settings: chlorsulfuron 3 g ai/ha foliar; homozygous T1 plants; 8 days after treatment; 0=no effect, 100=dead plant
Procedure: T1 plants, each having an ALS variant transgene, were grown to the V1 to V2 growth stage and then sprayed with commercial chlorsulfuron formulation at a rate of 3 g ai/ha. All chlorsulfuron treatments were applied foliarly with 0.25% nonionic surfactant in a spray volume of 374 L/ha. Individual plants were compared to untreated plants of similar genetic background, evaluated for herbicide response at eight days after treatment and assigned a visual response score from 0 to 100% injury (0=no effect to 100=dead plant at day 8).
Results in Table 8 list the lowest injury among plants of a single event for constructs containing the listed expression cassette. The amino acid substituted ALS variants provided more protection than the overexpression of the native ALS gene. Seed was produced from a number of T1 plants and advanced to more extensive herbicide testing in the T2 generation.

| Molecule | Resistance pattern, I50 fold increase: IM [1] | Resistance pattern, I50 fold increase: SU [1] | Kinetic parameters: Km [2] | Kinetic parameters: kcat [2] | other results |
| --- | --- | --- | --- | --- | --- |
| B1 | IM, 60 fold | SUs, 30-300 fold | Km, 30 % wt | kcat, 200 % wt | – |
| B2 | – | SUs, 400-2000 fold | Km, 75 % wt | kcat, 25 % wt | Resistance pattern, I50 fold increase: IEt [1]: IEt, 10 fold |
| B3 | IMs, 8-70 fold | SUs, 1000-10000 fold | Km, 80 % wt | kcat, 450 % wt | – |
| B4 | – | SUs, 5-85 fold | Km, 60 % wt | kcat, 50 % wt | Resistance pattern, I50 fold increase: IP [1]: 10 fold; Resistance pattern, I50 fold increase: IEt [1]: 90 fold |
| B5 | IMs, 10-150 fold | SU, 10-100 fold | 65 % wt | 1 % wt | – |
| B6 | hypersensitivity | SUs, 200-900 fold | Km, 133 % wt | kcat, 140 % wt | – |
| B7 | IMs, 10-100 fold | SUs, 300-700 fold | 100 % wt | 20 % wt | – |
| B8 | IMs 15-300 fold | SUs, 1000-10000 fold | Km, 20 % wt | kcat, 75 % wt | – |
| B9 | – | – | – | – | Lowest % injury [3]: 45% |
| B10 | IMs, 1000-2000 fold | SUs, 4 fold | Km, 160 % wt | kcat, 25 % wt | Kinetic parameters: Kc for FAD ([2]; cofactor activation constant, flavin adenine dinucleotide): Kc for FAD, 400 % wt; Kinetic parameters: Kc for TPP ([2]; cofactor activation constant, thiamin pyrophosphate): Kc for TPP, 2000 % wt |
| B11 | – | – | – | – | Resistance pattern, I50 fold increase: IP [1]: IP, 2 fold; Resistance pattern, I50 fold increase: CS ([1]; chlorsulfuron): CS, 1000 fold |
| B12 | – | – | – | – | Resistance pattern, I50 fold increase: IEt [1]: IEt, 50 fold; Resistance pattern, I50 fold increase: SM ([1]; sulfometuron methyl): SM, 2 fold |
